Data: US20250288643A1
Positions count from the first letter of the chain named.

T1: mouse CD47 (mouse) (UniProt Q61735)
T1 sequence (looked up): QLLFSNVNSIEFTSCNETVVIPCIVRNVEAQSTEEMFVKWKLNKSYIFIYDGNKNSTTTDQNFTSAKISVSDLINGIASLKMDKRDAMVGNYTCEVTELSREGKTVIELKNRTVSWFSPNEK

B1: 4RP13-4-5C (designed binder)
hSIRPα IgV domain mutant: EEELQVIQPDKSVSVAAGESAILNCTVTSLIPVGPIQWFRGAGPARELIYNQKHQTFPRVTTVSEQTKRENRDFSISISNITPADAGTYYCVKFRKGSPDTEFKSGAGTELSVRAKPS
B2: 2RP-1-3E (designed binder)
hSIRPα IgV domain mutant: B1 hSIRPα IgV domain mutant with N24T, I31W, H54G, T56N, Q66S, E70F, R72M
B3: 4RP13-3-7B (designed binder)
hSIRPα IgV domain mutant: B1 hSIRPα IgV domain mutant with N24T, I31Y, H54R, Q66S, E70F, R72M
B4: 4RP13-3-10B (designed binder)
hSIRPα IgV domain mutant: B1 hSIRPα IgV domain mutant with N24H, I31Y, H54G, Q55R, T56R, Q66S, E70A, R72M
B5: 4RP13-3-4D (designed binder)
hSIRPα IgV domain mutant: B1 hSIRPα IgV domain mutant with N24H, I31L, H54S, Q55K, T56V, Q66S, E70R, R72M
B6: 4RP13-5-6G (designed binder)
hSIRPα IgV domain mutant: B1 hSIRPα IgV domain mutant with N24R, I31T, H54A, Q55K, T56Q, Q66S, R72M, D73I
B7: 2R-1-4B (designed binder)
hSIRPα IgV domain mutant: B1 hSIRPα IgV domain mutant with N24H, I31A, H54L, Q55D, T56S, Q66S, N71S, R72M
B8: 2R-1-7B (designed binder)
hSIRPα IgV domain mutant: B1 hSIRPα IgV domain mutant with N24H, T26I, H54I, Q55L, Q66S, R72Y
B9: 2R-1-10B (designed binder)
hSIRPα IgV domain mutant: B1 hSIRPα IgV domain mutant with N24H, H54N, Q55L, T56I, Q66S, T67G, R72M

Target: T1, mouse CD47 (mouse)
Assay: ELISA, coated mouse CD47 ECD Fc, supernatant, anti-c-Myc HRP

mCD47 binding (OD) | Binder
0.116 | B1
0.113 | B2
0.152 | B3
0.17 | B4
0.173 | B5
0.149 | B6
0.082 | B7
0.087 | B8
0.086 | B9
